In paper PMC5223167:

T1: PPE2 (Mycobacterium tuberculosis (BAC-Rv329 …, UniProt P9WI47))
T1 sequence: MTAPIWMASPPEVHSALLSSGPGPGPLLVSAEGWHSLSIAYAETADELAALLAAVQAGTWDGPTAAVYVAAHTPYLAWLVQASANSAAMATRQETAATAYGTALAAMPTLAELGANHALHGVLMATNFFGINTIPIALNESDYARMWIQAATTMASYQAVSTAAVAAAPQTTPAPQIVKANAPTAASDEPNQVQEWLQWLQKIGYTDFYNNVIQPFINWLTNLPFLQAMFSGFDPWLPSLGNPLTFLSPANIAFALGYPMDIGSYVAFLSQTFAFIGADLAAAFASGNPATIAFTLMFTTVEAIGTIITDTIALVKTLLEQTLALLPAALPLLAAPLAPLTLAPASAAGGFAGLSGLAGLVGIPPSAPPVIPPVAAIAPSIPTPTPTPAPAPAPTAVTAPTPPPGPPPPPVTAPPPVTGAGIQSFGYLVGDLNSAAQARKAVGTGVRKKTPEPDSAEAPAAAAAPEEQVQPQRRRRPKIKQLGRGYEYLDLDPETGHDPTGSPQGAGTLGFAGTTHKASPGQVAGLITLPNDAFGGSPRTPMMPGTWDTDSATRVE

B1: NF-kB consensus (dsDNA)
DNA 1: AGTTGAGGGGACTTTCCCAGGC
DNA 2: GCCTGGGAAAGTCCCCTCAACT
B2: IRF-1 consensus (dsDNA)
DNA 1: CACTGTCAATATTTCACTTTCATAATG
DNA 2: CATTATGAAAGTGAAATATTGACAGTG
B3: inos proximal GATA-1 element (overlaps TATA box) (dsDNA)
DNA 1: GGGGTATAAATACCTGATGGCTGCTGCCAG
DNA 2: CTGGCAGCAGCCATCAGGTATTTATACCCC
B4: GATA consensus (dsDNA)
DNA 1: CACTTGATAACAGAAAGTGATAACTCT
DNA 2: AGAGTTATCACTTTCTGTTATCAAGTG

Target: T1, PPE2
Assay: EMSA; 20 mM HEPES (pH not stated), 0.5 mM DTT, 0.5 mM EDTA, 5% glycerol, room temperature, 30 min; […]
Conditions: protein: recombinant; tags: N-terminal His (pRSET A); label: 32P 5' end; blunt

Binder	binding result
B1	no binding
B2	no binding
B3	binds
B4	binds
